# How the values were obtained:
# [1] = target: Donor-labeled tetramerization domain (TD) of p53 with AviTag (Avi-D-TD); experiment: FRET or BRET
# [2] = target: Donor (Alexa 488)-labeled, biotinylated Avi-C-Aβ42 (Avi-D-Aβ42) (UniProt P05067); experiment: FRET or BRET
Substance,stoichiometry N [1],Kd [2] [µM],stoichiometry N [2]
Acceptor-labeled tetramerization domain (TD) of p53 (TD-A) (domain or fragment),4,–,–
Acceptor (Alexa 594)-labeled C-Aβ42 (A-Aβ42) (from UniProt P05067 672-713) (peptide),–,240,> 10
